{"source": "patent US20230201308A1", "about": "“TREATMENT OF CORONAVIRUS INFECTION WITH […]” (Eiger Biopharmaceuticals, Inc., priority 2020, published 2023)", "molecules": {"B1": {"name": "pegylated interferon lambda-1a (protein)", "chain": "MKPTTTGKGCHIGRFKSLSPQELASFKKARDALEESLKLKNWSCSSPVFPGNWDLRLLQVRERPVALEAELALTLKVLEAAAGPALEDVLDQPLHTLHHILSQLQACIQPQPTAGPRPRGRLHHWLHRLQEAPKKESAGCLEASVTFNLFRLLTRDLKYVADGNLSLRTSTHPEST", "modifications": "PEG", "notes": "180 mcg subcutaneous injection"}}, "key": {"SARS-CoV-2": {"tested_on": "SARS-CoV-2", "assay": "First trial: single 180 mcg dose vs placebo in 120 participants with COVID-19", "type": "in vivo, human", "protocol": "Using the methods and criteria described above in Examples 1-3, a first trial was performed. In the first trial, 120 participants were enrolled; 70 (58.3%) were male, 75 (62.5%) identified as Latinx, and the median duration of symptoms prior to randomization was 5 days. Sixty participants were randomly assigned to receive 180 mcg pegylated interferon lambda-1a, and 60 participants were assigned to receive a placebo. […] Subjects viral samples were taken by oral pharyngeal swabs. The median time to cessation of viral shedding was 7 days in both arms (hazard ratio [HR] for duration of shedding 0.81 comparing Lambda vs. placebo; 95% confidence interval [CI] 0.56 to 1.19; p=0.29). No difference in time to resolution of symptoms was observed comparing interferon lambda vs. placebo (HR 0.94; 95% CI 0.64 to 1.39; p=0.76). Two serious adverse events were reported in each arm. Liver transaminase elevations were more common in the interferon lambda vs. placebo arm (15/60 vs 5/60; p=0.027)."}, "[1]": {"tested_on": "SARS-CoV-2 (2019-nCoV/USA-WA1/2020)", "type": "cell-based", "details": "HAE pretreated basolaterally 24 hr"}, "SARS-CoV-2 MA": {"tested_on": "SARS-CoV-2 MA", "parameters": "species or system BALB/c mice", "details": "mouse, in vivo, sc"}}, "note": "Where two headings read alike, the source gives them in different places.", "data": [{"molecule": "B1", "values": [{"measurement": "shedding cessation relative to placebo", "setting": "SARS-CoV-2; seronegative at baseline", "result": "delayed shedding cessation relative to placebo"}, {"measurement": "shedding cessation relative to placebo", "setting": "SARS-CoV-2; seropositive at baseline", "result": "appeared to hasten shedding cessation"}, {"measurement": "effect on duration of viral shedding and symptoms compared to placebo", "setting": "SARS-CoV-2; single 180 mcg s.c.", "result": "neither shortened the duration of SARS-CoV-2 viral shedding nor improved symptoms"}, {"measurement": "hazard ratio for duration of shedding vs. placebo", "setting": "SARS-CoV-2; single 180 mcg s.c.", "result": 0.81}, {"measurement": "hazard ratio, time to resolution of symptoms vs. placebo", "setting": "SARS-CoV-2; single 180 mcg s.c.", "result": 0.94}, {"measurement": "liver transaminase elevations (participants of arm)", "setting": "SARS-CoV-2; single 180 mcg s.c.", "result": "15/60"}, {"measurement": "serious adverse events reported in the arm", "setting": "SARS-CoV-2; single 180 mcg s.c.", "result": "Two"}, {"measurement": "tolerability", "setting": "SARS-CoV-2; single 180 mcg s.c.", "result": "well tolerated"}, {"measurement": "median time to cessation of viral shedding", "setting": "SARS-CoV-2; single 180 mcg s.c., n=60", "result": 7, "unit": "days"}, {"measurement": "SARS-CoV-2 infectious virus production (titer of apical washes, plaque assay)", "setting": "[1]; […]", "result": "reducing viral load in infected cells"}, {"measurement": "SARS-CoV-2 infectious virus production (titer of apical washes, plaque assay)", "setting": "[1]; […];, listed as peg-IFN-λ1", "result": "potent dose dependent reduction"}, {"measurement": "SARS-CoV-2 MA replication in the lung (lung viral titer)", "setting": "SARS-CoV-2 MA", "result": "significantly diminished"}, {"measurement": "viral titer in the nasal turbinates", "setting": "SARS-CoV-2 MA", "result": "did not alter"}]}]}
